Assay results taken from article PMC9640981, “Plant vernalization proteins contain unusual PHD superdomains without histone H3 binding activity” (The Journal of Biological Chemistry, 2022).
“Also recorded” adds a separate entry of the source.

Assays:
[1] = system: ^15N-labeled Pd VIN3_123-326; test: NMR (BEST-TROSY) interaction of negatively charged polymers with Pd VIN3 PHD superdomain; type: binding, Phoenix dactylifera
Procedure: (§1) For NMR spectroscopy, A. thaliana VIN3_150-208 and P. dactilyfera VIN3_123-326 were expressed in M9 minimal medium supplemented with 0.4% glucose, antibiotics, trace elements, 25 ml overnight culture, and 2 g of ^15N-H4Cl per liter of expression culture. Cultures were grown and processed essentially as described before. NMR samples containing 50 μM ^15N-labeled VIN3_150-208 or VIN3_123-326 were prepared in aqueous buffer (25 mM Tris pH 8, 150 mM NaCl, and 1 mM DTT). The 50 μM ^15N-labeled VIN3_150-208 or VIN3_123-326 was incubated with 0.5 mM histone H3 peptides resuspended in 25 mM Tris pH 8, 150 mM NaCl, and 1 mM DTT for >30 min before measurement. Spectra were recorded on a Bruker Avance-III spectrometer operating at 600 MHz ^1H frequency and equipped with a 5 mm inverse detection cryogenic probe. BEST-TROSY shift correlation experiments ([45]) were acquired with 256 × 1024 points in t1 and t2, respectively. Spectra were processed in TopSpin version 3.2 (Bruker), with linear prediction in t1, giving a digital resolution of 2.2 and 8.2 Hz/point in the processed data.
Generation of nucleic acid probes for NMR
FLC DNA was used as a template for the design of a dsDNA 60-mer probe, generated by annealing the sequence (5′ […] 3′) and its complementary oligonucleotide for 2 min at 95 °C. […]

VIN3 PHD superdomain = test: Interaction of negatively charged polymers with VIN3 PHD superdomain (NMR and ITC, summary); type: binding, Phoenix dactylifera; conditions: listed as RNA
Procedure: ITC was carried out at 25 °C with an iTC 200 Microcalorimeter (GE Healthcare) in 25 mM Tris pH 8, 150 mM NaCl, and 1 mM DTT. Titrations consisted of 19 consecutive 2 μl injections of 0.25 to 1 mM peptide solution (following a preinjection of 0.5 μl) into 50 μM protein (VIN3PHD, VIN3_123-326, VIN3_116-307, OBE1_193-372, or pVP13 VIN3_130-299) at time intervals of 120 s. ITC data were analyzed using MicroCal PEAQ-IT Analysis Software (Malvern Sciences).
as §1, with “Spectra were processed in TopSpin version 3.2 (Bruker), with linear prediction in t1, giving a digital resolution of 2.2 and 8.2 Hz/point in the processed data.” left out

B1: 63-mer RNA: FLC RNA transcript, 5′ GGGAAAGAGAAAACGCUUAGUAUCUCCGGCGACUUGAACCCAAACCUGAGGAUCAAAUUAGGG 3′ (nucleic acid)
chain: GGGAAAGAGAAAACGCUUAGUAUCUCCGGCGACUUGAACCCAAACCUGAGGAUCAAAUUAGGG
modifications: RNA, backbone not given here; further chemistry not fully specified
perturbation of BEST-TROSY spectrum (in words) ([1]; 50 μM ^15N-labeled VIN3_123-326, 4 μM 60-mer dsDNA or 63-mer RNA (Fig. 6A, B), ssDNA comparison E. F.-E., unpublished): produced perturbations of the same individual crosspeaks
minimal concentration required to produce spectral perturbations ([1]; BEST-TROSY, 50 μM ^15N-labeled VIN3_123-326, 25 mM Tris pH 8, 150 mM NaCl, 1 mM DTT): 2 µM
propensity for interaction with negatively charged polymers (in words) (VIN3 PHD superdomain): moderate propensity for interacting; also recorded: interact weakly; also recorded: can interact instead with negatively charged polymers
